T1: Filamin A domains 4-6, wild type (human, UniProt P21333 571-861)
T1 sequence (looked up): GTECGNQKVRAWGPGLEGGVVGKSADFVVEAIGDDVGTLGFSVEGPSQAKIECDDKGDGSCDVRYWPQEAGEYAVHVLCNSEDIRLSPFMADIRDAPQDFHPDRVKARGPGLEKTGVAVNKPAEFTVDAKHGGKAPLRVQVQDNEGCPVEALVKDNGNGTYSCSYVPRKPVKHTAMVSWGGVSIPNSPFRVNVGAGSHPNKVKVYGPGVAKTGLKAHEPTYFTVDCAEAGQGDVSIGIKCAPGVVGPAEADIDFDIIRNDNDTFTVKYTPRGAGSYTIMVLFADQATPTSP


Target: T1, Filamin A domains 4-6, wild type
Experiment: SPR

Binder	Kd [µM]
PTPN12 600–673 (domain or fragment, UniProt Q05209 600-673, looked up) PLHSDDSDSDERNSDGAVTQNKTNISTASATVSAATSTESISTRKVLPMSIARHNIAGTTHSGAEKDVDVSEDS	> 10000
PLHSDDSDSDERNSDGAVTQNKTNISTASATVSAA (domain or fragment, UniProt Q05209 600-634, looked up) [PTPN12–600-634]	> 10000

Binders with a lower Kd, results first:

Kd [µM]	Binder
~0.33	PTPN12 C-terminal domain (600–780) (domain or fragment, UniProt Q05209 600-780, looked up) PLHSDDSDSDERNSDGAVTQNKTNISTASATVSAATSTESISTRKVLPMSIARHNIAGTTHSGAEKDVDVSEDSPPPLPERTPESFVLASEHNTPVRSEWSELQSQERSEQKKSEGLITSENEKCDHPAGGIHYEMCIECPPTFSDKREQISENPTEATDIGFGNRCGKPKGPRDPPSEWT
0.27	PTPN12 634–709 (domain or fragment, UniProt Q05209 634-709, looked up) ATSTESISTRKVLPMSIARHNIAGTTHSGAEKDVDVSEDSPPPLPERTPESFVLASEHNTPVRSEWSELQSQERSE
0.32	PTPN12–600-709 (domain or fragment, UniProt Q05209 600-709, looked up) PLHSDDSDSDERNSDGAVTQNKTNISTASATVSAATSTESISTRKVLPMSIARHNIAGTTHSGAEKDVDVSEDSPPPLPERTPESFVLASEHNTPVRSEWSELQSQERSE
